Consider 6 molecules from article PMC10641528, “A conserved, noncanonical insert in FIS1 mediates TBC1D15 and DRP1 recruitment for mitochondrial fission” (The Journal of Biological Chemistry, 2023).

Experiment [1] deals with DRP1, endogenous (dynamin family GTPase) (human (endogenous in HCT116)) (UniProt O00429). Description: co-IP; endogenous DRP1 immunoprecipitated (mouse monoclonal sc-271583 on protein A/G beads) from lysates of HCT116 cells transfected with pcDNA or pcDNA-FIS1 variants and cross-linked with 0.25% PFA; FIS1 blotted; scored as ratio of immunoprecipitated to input FIS1; lysis buffer 10 mM Tris/Cl pH 7.5, 150 mM NaCl, 0.5 mM EDTA, 0.5% NP-40 substitute.

Experiment [2] has as its target T1, DRP1, endogenous (dynamin family GTPase) (human (endogenous in HCT116), UniProt O00429 1-736).
T1 construct: DRP1 endogenous in HCT116 cells; Immunoprecipitated with mouse monoclonal DRP1 antibody sc-271583; source: endogenous, HCT116 lysate (PFA cross-linked cells)
The description is as above. Particulars: partners not purified.

T1 sequence (O00429 whole entry): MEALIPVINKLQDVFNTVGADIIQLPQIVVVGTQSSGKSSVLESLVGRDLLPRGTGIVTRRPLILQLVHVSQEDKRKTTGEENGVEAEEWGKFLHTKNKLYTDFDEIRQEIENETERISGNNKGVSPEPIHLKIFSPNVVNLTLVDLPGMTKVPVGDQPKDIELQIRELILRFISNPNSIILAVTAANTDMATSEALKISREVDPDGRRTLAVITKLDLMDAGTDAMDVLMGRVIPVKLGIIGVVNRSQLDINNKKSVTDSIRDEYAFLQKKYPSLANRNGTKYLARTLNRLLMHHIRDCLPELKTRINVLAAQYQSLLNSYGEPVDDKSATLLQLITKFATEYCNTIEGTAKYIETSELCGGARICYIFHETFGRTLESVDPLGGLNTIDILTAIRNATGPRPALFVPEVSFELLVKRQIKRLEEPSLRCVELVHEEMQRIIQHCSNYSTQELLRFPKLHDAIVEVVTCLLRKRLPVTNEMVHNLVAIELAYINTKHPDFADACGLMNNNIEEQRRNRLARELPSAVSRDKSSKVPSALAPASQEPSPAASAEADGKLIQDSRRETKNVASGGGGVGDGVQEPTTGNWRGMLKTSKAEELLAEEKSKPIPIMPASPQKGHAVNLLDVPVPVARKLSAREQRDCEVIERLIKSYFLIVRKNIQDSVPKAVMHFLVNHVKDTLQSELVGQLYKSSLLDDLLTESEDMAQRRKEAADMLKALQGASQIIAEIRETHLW
Sequence of DRP1, endogenous (dynamin family GTPase) (human (endogenous in HCT116)) (O00429 whole entry): as above

For the molecule “FIS1 5LA variant (five conserved TPR Leu residues replaced with Ala) (from UniProt Q9Y3D6 1-145) (natural protein)”, the ratio of immunoprecipitated to input FIS1 in experiment [1] was 3.9.

B1: Mitochondrial fission protein 1 (FIS1), wildtype, ectopically expressed from pcDNA-FIS1 WT (natural protein, human)
chain: MEAVLNELVSVEDLLKFEKKFQSEKAAGSVSKSTQFEYAWCLVRSKYNDDIRKGIVLLEELLPKGSKEEQRDYVFYLAVGNYRLKEYEKALKYVRGLLQTEPQNNQAKELERLIDKAMKKDGLVGMAIVGGMALGVAGLAGLIGL
notes: human mitochondrial fission protein 1 (FIS1), wildtype, expressed from pcDNA; No tag is mentioned; detected with an anti-FIS1 antibody; also called WT FIS1; source: HCT116, transfected, in lysate (PFA cross-linked cells)
As to B1, the “ratio of immunoprecipitated to input FIS1” value (shortened to “ratio of immunoprecipitated”) in experiment [2] is 0.7 ± 0.1.

B2: FIS1 D49G variant (natural protein, human)
chain: MEAVLNELVSVEDLLKFEKKFQSEKAAGSVSKSTQFEYAWCLVRSKYNGDIRKGIVLLEELLPKGSKEEQRDYVFYLAVGNYRLKEYEKALKYVRGLLQTEPQNNQAKELERLIDKAMKKDGLVGMAIVGGMALGVAGLAGLIGL
notes: human FIS1 that keeps the SKY insert, with D49 replaced by Gly, expressed from pcDNA; source: HCT116, transfected, in lysate (PFA cross-linked cells)
Consider B2, for which, in experiment [2], the “ratio of immunoprecipitated” value is 0.7 ± 0.3.

B3: FIS1 AAA variant (SKY insert substituted with three alanines) (natural protein, human)
chain: MEAVLNELVSVEDLLKFEKKFQSEKAAGSVSKSTQFEYAWCLVRAAANDDIRKGIVLLEELLPKGSKEEQRDYVFYLAVGNYRLKEYEKALKYVRGLLQTEPQNNQAKELERLIDKAMKKDGLVGMAIVGGMALGVAGLAGLIGL
notes: human FIS1 with S45, K46, Y47 replaced by three Ala, expressed from pcDNA; also called AAA FIS1 variant; source: HCT116, transfected, in lysate (PFA cross-linked cells)
Turning to B3, the “ratio of immunoprecipitated” value in experiment [2] turned out to be 0.9 ± 0.1.

B4: FIS1 ΔSKY variant (SKY insert deleted) (natural protein, human)
chain: MEAVLNELVSVEDLLKFEKKFQSEKAAGSVSKSTQFEYAWCLVRNDDIRKGIVLLEELLPKGSKEEQRDYVFYLAVGNYRLKEYEKALKYVRGLLQTEPQNNQAKELERLIDKAMKKDGLVGMAIVGGMALGVAGLAGLIGL
notes: human FIS1 with S45, K46, Y47 deleted, expressed from pcDNA; source: HCT116, transfected, in lysate (PFA cross-linked cells)
In the case of B4, the “ratio of immunoprecipitated” value in experiment [2] was found to be 1.3 ± 0.9.

B5: FIS1 ΔSKYD49G variant (SKY insert deleted, D49 replaced by Gly) (natural protein, human)
chain: MEAVLNELVSVEDLLKFEKKFQSEKAAGSVSKSTQFEYAWCLVRNGDIRKGIVLLEELLPKGSKEEQRDYVFYLAVGNYRLKEYEKALKYVRGLLQTEPQNNQAKELERLIDKAMKKDGLVGMAIVGGMALGVAGLAGLIGL
notes: human FIS1 with S45, K46, Y47 deleted and D49 replaced by Gly (wildtype numbering), expressed from pcDNA; source: HCT116, transfected, in lysate (PFA cross-linked cells)
For B5, the “ratio of immunoprecipitated” value in experiment [2] is 0.9 ± 0.2.
